Results taken from publication PMC5719345.
Read-outs that look alike come from different tables or passages of the source.

Key:
[1] = molecular target: N-terminus of influenza B nucleoprotein (B/NP_(1-70)) (influenza B virus (strain B/Memphis/13/03)); assay: ITC; MicroCal ITC200; 16 × 2.4 µL injections of 150 µM importin-α7 into 20 µM B/NP_TAIL; 20 mM Tris-HCl pH 7.5, 150 mM NaCl; 20 °C by the methods (25 °C by the legend of Figure 6); triplicate; single-binding site model
[2] = molecular target: importin-α1 (Mus musculus) (UniProt P52293); conditions: cited from earlier work
[3] = molecular target: importin-α1 (Mus musculus) (UniProt P52293); conditions: cited from earlier work; remark: listed apart in the source

N-terminus of influenza B nucleoprotein (B/NP_(1-70)) (influenza B virus (strain B/Memphis/13/03)), sequence (P04665 1-70): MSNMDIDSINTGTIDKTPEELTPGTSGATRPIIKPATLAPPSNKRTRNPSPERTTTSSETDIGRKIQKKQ

Substance: human importin-α7 (from UniProt O60684 1-536) (natural protein)
- Kd [1]: 844 nM
- stoichiometry N [1]: 1

Substance: influenza A nucleoprotein NLS2 213-216 (from UniProt Q289M3)
- Kd [2]: 70000 nM

Substance: influenza A nucleoprotein tail NTAIL (from UniProt Q289M3)
- Kd [3]: 1700 nM
